A short description of series [1]: Dosing regimen model: required bioavailability for ingestible device (Tables 16, 17). To be noted: for Eff Dose: approved dose x bioavailability of the approved route (Table 16).
The conditions of series [2]: in vivo, sc; cited from earlier work.

The source of these data is US11007356B2, “Ingestible device for delivery of therapeutic agent to the gastrointestinal tract” (Progenity, Inc., priority 2018, dated 2021).

B1: evolocumab (antibody, chains of the INN, looked up, V domains shown)
VH: EVQLVQSGAEVKKPGASVKVSCKASGYTLTSYGISWVRQAPGQGLEWMGWVSFYNGNTNYAQKLQGRGTMTTDPSTSTAYMELRSLRSDDTAVYYCARGYGMDVWGQGTTVTVSS
VL: ESALTQPASVSGSPGQSITISCTGTSSDVGGYNSVSWYQQHPGKAPKLMIYEVSNRPSGVSNRFSGSKSGNTASLTISGLQAEDEADYYCNSYTSTSMVFGGGTKLTVL
As for B1, the “Eff Dose” value in series [1] is on record as 114.8 mg. Also, the “Bio Avail (Approved Dosing Info)” value in series [2] is recorded as 82%.

B2: emicizumab (antibody, chains of the INN, looked up, V domains shown)
VH: QVQLVQSGSELKKPGASVKVSCKASGYTFTDNNMDWVRQAPGQGLEWMGDINTRSGGSIYNEEFQDRVIMTVDKSTDTAYMELSSLRSEDTATYHCARRKSYGYYLDEWGEGTLVTVSS
VL: DIQMTQSPSSLSASVGDRVTITCKASRNIERQLAWYQQKPGQAPELLIYQASRKESGVPDRFSGSRYGTDFTLTISSLQPEDIATYYCQQYSDPPLTFGGGTKVEIK
VH2: QVQLVESGGGLVQPGGSLRLSCAASGFTFSYYDIQWVRQAPGKGLEWVSSISPSGQSTYYRREVKGRFTISRDNSKNTLYLQMNSLRAEDTAVYYCARRTGREYGGGWYFDYWGQGTLVTVSS
VL2: DIQMTQSPSSLSASVGDRVTITCKASRNIERQLAWYQQKPGQAPELLIYQASRKESGVPDRFSGSRYGTDFTLTISSLQPEDIATYYCQQYSDPPLTFGGGTKVEIK
Take B2: in series [1], the “Eff Dose” value worked out at 89.3 mg. Further, the “Bio Avail (Approved Dosing Info)” value in series [2] is listed as 85%.

B3: concizumab (antibody, chains of the INN, looked up, V domains shown)
VH: EVQLVESGGGLVKPGGSLRLSCAASGFTFSNYAMSWVRQTPEKRLEWVATISRSGSYSYFPDSVQGRFTISRDNAKNSLYLQMNSLRAEDTAVYYCARLGGYDEGDAMDSWGQGTTVTVSS
VL: DIVMTQTPLSLSVTPGQPASISCKSSQSLLESDGKTYLNWYLQKPGQSPQLLIYLVSILDSGVPDRFSGSGSGTDFTLKISRVEAEDVGVYYCLQATHFPQTFGGGTKVEIK
With B3, the “Eff. Dose” value in series [1] (baseline dose x bioavailability, SC (Table 17), assumed weight 70 kg) is listed as 16.3 mg. In series [2], the “Bioavail. (Baseline dose)” value was 93.0%.

B4: pegfilgrastim (protein, UniProt P09919 31-207, looked up)
Granulocyte …: TPLGPASSLPQSFLLKCLEQVRKIQGDGAALQEKLVSECATYKLCHPEELVLLGHSLGIPWAPLSSCPSQALQLAGCLSQLHSGLFLYQGLLQALEGISPELGPTLDTLQLDVADFATTIWQQMEELGMAPALQPTQGAMPAFASAFQRRAGGVLVASHLQSFLEVSYRVLRHLAQP
modifications: N-terminal Met; PEG
For B4, the “Eff Dose” value in series [1] was 4.2 mg. In series [2], the “Bio Avail (Approved Dosing Info)” value is 70%.
